Consider four molecules from article PMC7570391, “Cyclic Di-adenosine Monophosphate Regulates Metabolism and Growth in the Oral Commensal Streptococcus mitis” (Microorganisms, 2020).

Usually Km stands for the concentration of substrate that gives half-maximal velocity. Usually Vmax stands for the rate approached at saturating substrate. As usually defined, the kcat is the number of substrate molecules converted per active site and unit of time at saturation. One may read the kcat/Km as the turnover number divided by the Michaelis constant. What is called stoichiometry N is a count of units in the complex or per binding partner.

In data set [1] the test system is Nc1ncnc2c1ncn2[C@@H]1O[C@H](COP(=O)(O)O[C@H]2[C@@H](O)[C@H](n3cnc4c(N)ncnc43)O[C@@H]2COP(=O)(O)O)[C@@H](O)[C@H]1O. As to the kind of experiment: purified protein. As to conditions: 1 mM MnCl2, 50 mM Tris-HCl pH 7.5, 37 °C, 5 μM enzyme, product AMP.
The subject of data set [2] is [H][C@@]1(O)[C@]2([H])OP(=O)(O)OC[C@@]3([H])O[C@@]([H])(n4cnc5c(N)ncnc54)[C@]([H])(O)[C@]3([H])OP(=O)(O)OC[C@@]2([H])O[C@@]1([H])n1cnc2c(N)ncnc21. As to the kind of experiment: purified protein. As to conditions: 1 mM MnCl2, 50 mM Tris-HCl pH 7.5, 37 °C, 2.5 μM enzyme, product pApA.
Data set [3] concerns the target Pde2, full-length S. mitis DhhP-type phosphodiesterase (SM12261_1122) (Streptococcus mitis CCUG 31611). As to the kind of experiment: SEC; Superose 6 Increase 10/300 GL on an ÄKTA Pure 25; SEC buffer 1x PBS pH 7.4 with 10% glycerol; apparent molecular weight from vE/v0 against gel filtration markers (12,000-200,000 Da). A general note: SEC sorts molecules by how far they enter the pores of the column.

Data set [4] addresses CdaA_(103–285), truncated S. mitis CdaA-type diadenylate cyclase (SM12261_1351) lacking the transmembrane helices (Streptococcus mitis CCUG 31611). The description is as above.
Substrate in data set [5]: [H][C@@]1(O)[C@]2([H])OP(=O)(O)OC[C@@]3([H])O[C@@]([H])(n4cnc5c(N)ncnc54)[C@]([H])(O)[C@]3([H])OP(=O)(O)OC[C@@]2([H])O[C@@]1([H])n1cnc2c(N)ncnc21
As to the kind of experiment: AMP formation, reversed-phase HPLC, Michaelis-Menten fit. Format: biochemical, Streptococcus mitis. The note with it: 1 mM MnCl2, 50 mM Tris-HCl pH 8.5, 37 °C, 10 μM enzyme, product AMP. The source says: (§1) AMP formation, reversed-phase HPLC, Michaelis-Menten fit on Pde2

Substrate in data set [6]: Nc1ncnc2c1ncn2[C@@H]1O[C@H](COP(=O)(O)O[C@H]2[C@@H](O)[C@H](n3cnc4c(N)ncnc43)O[C@@H]2COP(=O)(O)O)[C@@H](O)[C@H]1O
The data set is described as above. Format: biochemical, Streptococcus mitis. The note with it: 1 mM MnCl2, 50 mM Tris-HCl pH 8.5, 37 °C, 0.05 μM enzyme, product AMP.
Text: as §1

With “Pde1_53–657 (Streptococcus mitis NCTC 12261)”, in data set [1], the Km was 152.4 ± 03.6 µM, the Vmax was determined as 748 µM/min, the kcat turned out to be 2.49 ± 0.61 s⁻¹ and the kcat/Km amounted to 16400 M⁻¹ s⁻¹. In addition, in data set [2], the Michaelis constant (Km) was 241.3 ± 11.6 µM, the Vmax is 621 µM/min, the kcat was 4.14 ± 1.99 s⁻¹ and the catalytic efficiency (kcat/Km) was found to be 17000 M⁻¹ s⁻¹.

For the molecule “Pde2, full-length S. mitis DhhP-type phosphodiesterase (SM12261_1122) (enzyme)”, the stoichiometry N in data set [3] worked out at 2.

Turning to “CdaA_(103–285), truncated S. mitis CdaA-type diadenylate cyclase (SM12261_1351) lacking the transmembrane helices (domain or fragment)”, in data set [4], the stoichiometry N turned out to be 2.

B1: Pde2 (Streptococcus mitis NCTC 12261) (protein)
chain: MDICHQILEKIKEYDTIIIHRHMKPDPDALGSQVGLKALLKHHFPEKTIKAVGFDEPTLTWMAEMDLVEDSAYQGALVIVCDTANTARIDDKRYSQGDFLIKIDHHPNDDVYGDLSWVDTSSSSASEMITLFAQTTQLALSDRAAELLFAGIIGDTGRFLYPSTTERTLRLAAYLREHNFDFAALTRKMDTMSYKIAKLQGYIYDHLEVDENGAARVILSQEILKRFNVTDAETAAIVGAPGRIDSVSLWGIFVEQADGHYRVRLRSKIHPINEIAKEHDGGGHPLASGANSYSLEENEIIYQKLKNLLKN
On to B1, for which, in data set [5], the Km amounted to 148.5 ± 34.8 µM, the Vmax came out at 46.8 µM/min, the kcat is 0.078 ± 0.005 s⁻¹ and the kcat/Km worked out at 525 M⁻¹ s⁻¹. In addition, in data set [6], the Km stood at 877 ± 312 µM, the Vmax is 10600 µM/min, the kcat was 3530 ± 623 s⁻¹ and the kcat/Km stood at 4.02e+06 M⁻¹ s⁻¹.
